Reference: patent US20260234236A1 (INTERVET, published 2026)
Numbering of substitutions follows the chain as printed. Names and notes keep the numbering of the source.

T1: Recombinant canine IL-4 (R&D Systems, Catalog: 752-CL/CF) (canine, UniProt O77762 25-132)
T1 sequence (looked up): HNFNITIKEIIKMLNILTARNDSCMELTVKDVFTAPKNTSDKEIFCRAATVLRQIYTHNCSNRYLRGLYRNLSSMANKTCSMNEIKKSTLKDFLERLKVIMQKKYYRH

T2: Recombinant canine IL-13 (R&D Systems, Catalog: 5894-CL/CF) (canine, UniProt Q9N0W9 19-131, limits assumed)
T2 sequence (looked up): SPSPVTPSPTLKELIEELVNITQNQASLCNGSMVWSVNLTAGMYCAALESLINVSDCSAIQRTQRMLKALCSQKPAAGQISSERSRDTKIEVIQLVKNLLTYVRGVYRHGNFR

T3: Canine IL-4 with C-terminal Avi-HIS tag (canine, biotin label when loaded on SA biosensors (Example 4); site not stated)
T3 construct: also called cIL-4; biotinylated avitag-cIL-4
T3 chain: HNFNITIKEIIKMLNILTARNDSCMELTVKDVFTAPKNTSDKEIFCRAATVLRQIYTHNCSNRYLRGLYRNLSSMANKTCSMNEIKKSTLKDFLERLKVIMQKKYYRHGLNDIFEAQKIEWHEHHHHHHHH

T4: Canine IL-13 with C-terminal Avi-HIS tag (canine, biotin label when loaded on SA biosensors (Example 4); site not stated)
T4 construct: also called cIL-13; biotinylated avitag-cIL13
T4 chain: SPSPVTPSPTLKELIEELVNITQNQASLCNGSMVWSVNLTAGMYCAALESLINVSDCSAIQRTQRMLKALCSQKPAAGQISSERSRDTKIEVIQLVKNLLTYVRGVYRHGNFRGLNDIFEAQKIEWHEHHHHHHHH

B1: IL4-P4A-2D11VH-cIgGB/IL4-P4A-2D11VL-cCL (antibody, V domains shown)
VH: EEQLVEFGGDLVKPGESLRLSCVASGFTFNKYDMSWVRQAPGKGLQWVATVADDESFAYYTDSVKGRFTISRDNAKNTLYLQMNSLRAEDTAMYYCVGKTGSYWDIDFDLWGPGTLVTISS
VL: QAVLTQPPSVSAALGQRVTISCSGSTDNVGTVGASWYQHLPGRAPKLLVYIVGDRPSGVPDRFSGSKSGTSATLTITGLQAEDEADYYCSSWDDSLRGIVFGGGTHLTVLG
notes: Full-length canine IgG-B; also called IL4-2D11
B2: IL13-P3-1B4VH-cIgGB/IL13-P3-1B4VL-cCL (antibody)
heavy: ELTLQESGPGLVKPSQTLSLTCVVSGGSVTSNYYWNWIRQRPGRGLEWMGYWTGSTNYNPAFQGRISITADTAKNHFSLQLTSMTTEDTAVYYCARASTWLHGMDFWGHGTSLFVSSASTTAPSVFPLAPSCGSTSGSTVALACLVSGYFPEPVTVSWNSGSLTSGVHTFPSVLQSSGLYSLSSMVTVPSSRWPSETFTCNVAHPASKTKVDKPVPKRENGRVPRPPDCPKCPAPEMLGGPSVFIFPPKPKDTLLIARTPEVTCVVVDLDPEDPEVQISWFVDGKQMQTAKTQPREEQFNGTYRVVSVLPIGHQDWLKGKQFTCKVNNKALPSPIERTISKARGQAHQPSVYVLPPSREELSKNTVSLTCLIKDFFPPDIDVEWQSNGQQEPESKYRTTPPQLDEDGSYFLYSKLSVDKSRWQRGDTFICAVMHEALHNHYTQESLSHSPGK
light: SYVLTQSPSVSGSLGQTVTISCSGTTIGVVGANWYQQLPGKAPKLLVHSDGGRLSGVPDRFSGSESGNSAALTITGLQAEDEADYYCQSFDTTLGYVFGSGTQLTILGQPKASPSVTLFPPSSEELGANKATLVCLISDFYPSGVTVAWKADGSPVTQGVETTKPSKQSNNKYAASSYLSLTPDKWKSHSSFSCLVTHEGSTVEKKVAPAECS
notes: Full-length canine IgG-B; also called IL13-1B4
B3: IL13-P3-05VH-cIgGB/IL13-P3-05VL-cCL (antibody, V domains shown)
VH: EVQLVESGGDSVRPGGSLRLSCVASGFTFSRYNMGWVRQAPGKGLQWVAWIYDGGSRTSYADAVKGRFTISRDNAKDTLYLQMDDLRVDDTAVYYCARDPSSWGSLFDYWGQGTLVTVSS
VL: SYVLTQPPSVTVPLRQTARISCGGDNIRSKNVHWYQQKPGQAPVLIIYNDSNRPTGIPERFSGSNSGNMATLTIRGALAEDEADYYCQVWANDGYVFGSGTQLTVLG
notes: Full-length canine IgG-B
B4: IL13-P3-05VH-cIgGB/IL13-P3-05VLm-cCL (antibody, V domains shown)
VH: B3 VH
VL: B3 VL with N49Q
notes: Full-length canine IgG-B. The light chain has N replaced by Q in CDRL2 to remove a potential glycosylation site; also called IL13-P3-05Lm; IL-13 P3-05Lm
B5: IL13-P3-1G5VH-cIgGB/IL13-P3-1G5VL-cCL (antibody, V domains shown)
VH: EVQLVQSGGDLVKPGGTLRLSCVASGFTFSSYDMSWVRQSPGKGLQWVAAIWNDGSNTEYADAVKGRFTVSRDNAKNTVYLEMNSLRAEDTAMYYCVKEGPSYGYFDYWGQGTLVTVSS
VL: SYELTQPPSVSVSLGQTATISCSGESLSKYYAQWFQQKAGQAPVLVIYQDTERPSGIPDRFSGSSSGNTHTLTISGARAEDEADYYCESAISPDTYVFGSGTQLTILG
notes: Full-length canine IgG-B; also called IL13-1G5
B6: IL13-P3-1C6VH-cIgGB/IL13-P3-1C6VL-cCL (antibody, V domains shown)
VH: ELTLQESGPGLVKPSQTLSLTCVVSGGSVTNTYEWDWIRQRPGRGLEWMGSWTDNTWYNPAFQGRISITADTAKNQLSLQLSSVTTGDTAVYFCARWTKRWGYDYWGQGTLVTVSS
VL: QSVLTQPASVSGSLGQRVTISCSGRTNNIGYFGANWYQQVPGKAPKLLVSSYGNRPSGVPDRFSASNSANSATLTITGLQAEDEADYYCQSFDTTLGAVVFGGGTQLTVLG

These binders were tested against T1, Recombinant canine IL-4 (R&D Systems, …) (assay: cell-based or functional assay).
For B1, the “IL-4 IC50 (nM); inhibition of canine IL-4 mediated STAT6 phosphorylation in DH82 cells” value was 0.91 nM.

What follows are binders tested against T2, Recombinant canine IL-13 (R&D Systems, …) (assay: cell-based or functional assay).
B2 was tested, and the “IL-13 IC50 (nM); inhibition of canine IL-13 mediated STAT6 phosphorylation in DH82 cells” value (“IL-13 IC50 (nM); inhibition” below) was 97.5 nM.
In the case of B3, the “IL-13 IC50 (nM); inhibition” value is reported as 13.1 nM.
With B4 the “IL-13 IC50 (nM); inhibition” value was 4.44 nM.
For B5, the “IL-13 IC50 (nM); inhibition” value was 94.1 nM.
B6 was tested, and the “IL-13 IC50 (nM); inhibition” value was 47.9 nM.

Target: T3, Canine IL-4 with C-terminal Avi-HIS tag
Assay: DSS cross-linking and High-Mass MALDI MS
Text: In order to identify potentially discontinuous epitopes recognized by the antibodies of the present invention to their respective antigens, e.g., canine IL-4 or canine IL-13, a method was employed that was based on chemical crosslinking using disuccinimidyl suberate (DSS) and mass spectrometry detection (XL-MS) at CovalX Inc. (CovalX® Instrument Incorporated; Covalx.com). With this method, the binding of a canine antibody to its corresponding canine antigen in the presence of a mass-labeled chemical crosslinker is performed. The cross-linking experiments allow the direct analysis of non-covalent interaction by High-Mass MALDI (matrix assisted laser desorption ionization) mass spectrometry. […] The covalent binding generated allows the interacting species to survive the sample preparation process and the MALDI ionization. A High-Mass detection system allows characterizing the interaction in the High-Mass range.
The presence of the antigen-antibody complex were confirmed using High Mass MALDI detection. […]
B1: binds.

Target: T4, Canine IL-13 with C-terminal Avi-HIS tag
Assay: BLI (OCTET HTX); biotin-mAb on SA biosensors, cIL-13 in solution; 1:1 model
Method: Selected scFv specific to cIL-4 or cIL-13 were converted into full length canine IgG mAbs and tested for binding by OCTET. All kinetics measurements were performed by OCTET HTX using SA biosensors and Data Acquisition 12.0 software. First, each biotin-labeled full-length anti-canine IL-4 or anti-canine IL-13 mAb, at a concentration of 5 μg/mL, were loaded onto the pre-rehydrated SA biosensors until binding signal change ascended to a […] threshold for all channels from the step start or for a maximum of 1200s to insure equal loading density. Second, the biosensors were placed into OCTET Kinetics Buffer (PBS+0.02% Tween20, 0.1% BSA) for the blocking phase for 60s. Third, for the association phase, full-length anti-canine IL-4 mAb or anti-canine IL-13 mAb loaded biosensors were placed into 2-fold serial dilutions from 1000 nM down to 15.6 nM of cIL-4 or cIL-13, respectively, in OCTET Kinetics Buffer for 60s. The last well was buffer alone and that sensor was used for reference sensor subtraction. Finally, the biosensors were placed into OCTET Kinetics Buffer for the dissociation phase for 180s. Analysis was performed using Data Analysis 12.0 software and curves were fitted using a 1:1 binding model.
B2 was tested, and the Kd was 8.12 nM, the koff was 0.00208 s⁻¹ and the kon was 256000 M⁻¹ s⁻¹.
Work on B3 yielded a Kd of 5.58 nM, a koff of 0.00148 s⁻¹ and a kon of 252000 M⁻¹ s⁻¹.
B4 gave a Kd of 5.45 nM, a koff of 0.000793 s⁻¹ and a kon of 162000 M⁻¹ s⁻¹.
With B5 the Kd was 1.19 nM, the koff was 0.0018 s⁻¹ and the kon was 1.3e+06 M⁻¹ s⁻¹.
